Laboratory results reported in patent US20220267435A1.

Biological target: CD19 (UniProt P15391)
Assay: cell-based or functional assay

Chain of UniProt P15391 (P15391 20-556 limits assumed): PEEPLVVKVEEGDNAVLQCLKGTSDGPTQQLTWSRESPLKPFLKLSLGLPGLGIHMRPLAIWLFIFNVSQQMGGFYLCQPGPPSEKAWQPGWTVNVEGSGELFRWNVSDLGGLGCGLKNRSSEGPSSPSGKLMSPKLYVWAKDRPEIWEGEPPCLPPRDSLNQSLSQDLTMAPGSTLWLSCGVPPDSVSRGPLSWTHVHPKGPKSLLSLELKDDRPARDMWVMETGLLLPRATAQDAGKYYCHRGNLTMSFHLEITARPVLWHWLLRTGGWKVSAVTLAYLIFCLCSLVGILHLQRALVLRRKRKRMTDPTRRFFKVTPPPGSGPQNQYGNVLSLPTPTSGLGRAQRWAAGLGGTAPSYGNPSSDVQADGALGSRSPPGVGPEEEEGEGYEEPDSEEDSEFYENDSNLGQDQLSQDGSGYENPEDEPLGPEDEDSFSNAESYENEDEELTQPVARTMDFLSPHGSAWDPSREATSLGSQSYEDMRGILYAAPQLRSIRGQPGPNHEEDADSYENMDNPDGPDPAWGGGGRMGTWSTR

BG-conjugated FMC63 antibody
FMC63-BG concentration at the peak of SNAP-synNotch activation (TagBFP): 0.25 µg/mL | FMC63-BG concentration at which SNAP-synNotch activation is completely inhibited (hook effect): 10 µg/mL | TagBFP MFI; 0.01 million SNAP-synNotch cells, 0.01 million Raji cells, 0.1 µg/mL FMC63-BG, 48 h: 1820 MFI | TagBFP MFI; 0.01 million SNAP-synNotch cells, 0.01 million Raji cells, 1.0 µg/mL FMC63-BG, 48 h: 806 MFI | TagBFP MFI; 0.01 million SNAP-synNotch cells, 0.1 million Raji cells, 0.1 µg/mL FMC63-BG, 48 h: 3400 MFI | TagBFP MFI; 0.01 million SNAP-synNotch cells, 0.1 million Raji cells, 1.0 µg/mL FMC63-BG, 48 h: 2470 MFI | TagBFP MFI; 0.01 million SNAP-synNotch cells, 0.5 million Raji cells, 0.1 µg/mL FMC63-BG, 48 h: 1810 MFI | TagBFP MFI; 0.01 million SNAP-synNotch cells, 0.5 million Raji cells, 1.0 µg/mL FMC63-BG, 48 h: 5350 MFI | TagBFP MFI; 0.01 million SNAP-synNotch cells, 1 million Raji cells, 0.1 µg/mL FMC63-BG, 48 h: 1520 MFI | TagBFP MFI; 0.01 million SNAP-synNotch cells, 1 million Raji cells, 1.0 µg/mL FMC63-BG, 48 h: 4430 MFI | TagBFP MFI; 0.1 million SNAP-synNotch cells, 0.01 million Raji cells, 0.1 µg/mL FMC63-BG, 48 h: 1020 MFI | TagBFP MFI; 0.1 million SNAP-synNotch cells, 0.01 million Raji cells, 1.0 µg/mL FMC63-BG, 48 h: 984 MFI | TagBFP MFI; 0.1 million SNAP-synNotch cells, 0.1 million Raji cells, 0.1 µg/mL FMC63-BG, 48 h: 2540 MFI | TagBFP MFI; 0.1 million SNAP-synNotch cells, 0.1 million Raji cells, 1.0 µg/mL FMC63-BG, 48 h: 2260 MFI | TagBFP MFI; 0.1 million SNAP-synNotch cells, 0.5 million Raji cells, 0.1 µg/mL FMC63-BG, 48 h: 1940 MFI | TagBFP MFI; 0.1 million SNAP-synNotch cells, 0.5 million Raji cells, 1.0 µg/mL FMC63-BG, 48 h: 4570 MFI | TagBFP MFI; 0.1 million SNAP-synNotch cells, 1 million Raji cells, 0.1 µg/mL FMC63-BG, 48 h: 1180 MFI | TagBFP MFI; 0.1 million SNAP-synNotch cells, 1 million Raji cells, 1.0 µg/mL FMC63-BG, 48 h: 4220 MFI | TagBFP MFI; 0.5 million SNAP-synNotch cells, 0.01 million Raji cells, 0.1 µg/mL FMC63-BG, 48 h: 732 MFI | TagBFP MFI; 0.5 million SNAP-synNotch cells, 0.01 million Raji cells, 1.0 µg/mL FMC63-BG, 48 h: 667 MFI | TagBFP MFI; 0.5 million SNAP-synNotch cells, 0.1 million Raji cells, 0.1 µg/mL FMC63-BG, 48 h: 1570 MFI | TagBFP MFI; 0.5 million SNAP-synNotch cells, 0.1 million Raji cells, 1.0 µg/mL FMC63-BG, 48 h: 1490 MFI | TagBFP MFI; 0.5 million SNAP-synNotch cells, 0.5 million Raji cells, 0.1 µg/mL FMC63-BG, 48 h: 1120 MFI | TagBFP MFI; 0.5 million SNAP-synNotch cells, 0.5 million Raji cells, 1.0 µg/mL FMC63-BG, 48 h: 2680 MFI | TagBFP MFI; 0.5 million SNAP-synNotch cells, 1 million Raji cells, 0.1 µg/mL FMC63-BG, 48 h: 955 MFI | TagBFP MFI; 0.5 million SNAP-synNotch cells, 1 million Raji cells, 1.0 µg/mL FMC63-BG, 48 h: 2880 MFI | TagBFP MFI; 1 million SNAP-synNotch cells, 0.01 million Raji cells, 0.1 µg/mL FMC63-BG, 48 h: 550 MFI | TagBFP MFI; 1 million SNAP-synNotch cells, 0.01 million Raji cells, 1.0 µg/mL FMC63-BG, 48 h: 519 MFI | TagBFP MFI; 1 million SNAP-synNotch cells, 0.1 million Raji cells, 0.1 µg/mL FMC63-BG, 48 h: 1160 MFI | TagBFP MFI; 1 million SNAP-synNotch cells, 0.1 million Raji cells, 1.0 µg/mL FMC63-BG, 48 h: 1220 MFI | TagBFP MFI; 1 million SNAP-synNotch cells, 0.5 million Raji cells, 0.1 µg/mL FMC63-BG, 48 h: 979 MFI | TagBFP MFI; 1 million SNAP-synNotch cells, 0.5 million Raji cells, 1.0 µg/mL FMC63-BG, 48 h: 1810 MFI | TagBFP MFI; 1 million SNAP-synNotch cells, 1 million Raji cells, 0.1 µg/mL FMC63-BG, 48 h: 748 MFI | TagBFP MFI; 1 million SNAP-synNotch cells, 1 million Raji cells, 1.0 µg/mL FMC63-BG, 48 h: 1970 MFI | lowest FMC63-BG concentration with significant SNAP-synNotch activation (TagBFP): 0.04 µg/mL
